Measurements from the nanobody polyreactivity screen of Harvey et al. (2022).

Assay: yeast display, Sf9 membrane polyspecificity reagent, FACS + sequencing; frameworks hold sequencing errors
Outline: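 After 36–48 hours of galactose induction, yeast (Saccharomyces cerevisiae BJ5465) displaying a synthetic nanobody library were stained at 4 °C for 1 hour with 10% biotinylated, detergent-solubilized Sf9 membrane reagent. Streptavidin microbeads enriched the stained cells before FACS sorting into low and high (top ~1%) gates on anti-HA and streptavidin fluorescence. Each clone's polyreactivity label reflects its gate of origin.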

Row | Sequence | polyreactivity (PSR sort gate)
1 | QVQLVESGGGLVQAGGSLRLSCAASGSTLVQYVMGWYRQAPGKERELVAAISGSGGSTYYADSVKGRFTISRDNAKNTVYLQMNSLKPEDTAVYYCAASRRSGYGYWGQGTQVTVSS | high polyreactivity
2 | QVQLVESGGGLVQAGGSLRLSCAASGFIIYTYAMGWYRQAPGKERELVAAISRGGRTNYADSVKGRFTISRDNAKNTVYLQMNSLKPEDTAVYYCASSYSHRYDYWGQGSQVTVSS | high polyreactivity
3 | QVQLVESGGGLVQAGGSLRLSCAASGRIFKGYAMGWYRLAPGKERELVAAITSGGNTNYADSVKGRFTISRDNAKNTVYLQMNSLKPEDTAVYYCAARPRFVYSYPYYYWGQGTQVTVSS | high polyreactivity
4 | QVQLVESGGGLVQAGGSLRLSCAASGRTYVRNGMGWYRQAPGKERELVAAISRGGSTNYADSVKGRFTISRDNAKNTVYLEMNSLKPEDTAVYYCNARTAEYRPYYYRYNYWGQGTQVTLSS | high polyreactivity
5 | QFQLVESGGGLVQAGGSHRLSCAASGSIFFINAMGWYRQAPGKERELVASISQSGVSTYYADSVKGRFTISRDNAKNTVYFEMNSLKPEDTAVYYCATGPVRRARYVWSYTYYYWGQGTQVTVSS | low polyreactivity
6 | QVQLVESGGGLVQAGGSLRLSCAASGSTFTANAMGWYRQAPGKERELVASISARDGSTYADSVKGRFTISRDNAKKTVYLQMNSLKPEDTAVYYCNAAYFHIFPYDYDYWGQGTQVTVSS | low polyreactivity
7 | QVQLVESGGGLVQAGGSLRLSCAASRIFRGYAMGWYRQAPGKERELVAAIDRGVSTYYADSVKGRFTISRDNAKNTVYLQMNSRKPEDTAVYYCAVEYWEPYDMDYWGQGTQVTVSS | high polyreactivity
8 | QVQLVESGGGLVQAGGSLRLSCAASGSIFRYNAMGWYRQAPGKERELVASISISDGSTYYADSVKGRFTISRDNAKNTVYLQMKSLKPEDTAVYYCAARTRDFYYPYDYWGQGTQVTVSS | low polyreactivity
9 | QVQLVESGGGLVQAGGSLRLSCAASGSIFKTYAMGWYRQAPGKERELVAAITSGVSTNYADSVKGRFTISRDNAKNTVYLQMNSLKPEDTAVYYCNVDTSSPSRRDYDYWGQGTQVTVSS | low polyreactivity
10 | QVQHVESGVGLVQAVGSLRLSCAASGLTFKYYAMGWYRQAAVKEWELVARLSRTGGSTNYADSVKGRFTISRDNAKNTLYLQMNSLKPEDTAVSYCNTQFSYSSAPPFWYTKMYYWGQGTQVTVSS | high polyreactivity
11 | QVQLVESGGALVQAGGSLRLSCAASGSTFVTYAMGWYRQAPGKEREFVAAISWRGGRTYYADSVKGRFSISRDNAKNTVYLQMNSLKPEDTAVYYCAVRTLQRGKHDLGVDYWGQGTQVTVSS | high polyreactivity
12 | QVQLVESGGGLVQAGGSLRLSCAASGRIFGYNAMGWYRQAPGKERELVAAIRRRGGTTYYADSVKGRFTISRDNAKNTVYLQMNSLKPEDTAVYYCNTKYPGRGYYWGQGTQVTVSS | high polyreactivity
13 | QVQLVESGGGLVQAGGSLRLSCAASGFTFGPYDMGWYRQAPGKERELVAVIIGGDSTNYADSVKGRFTISRDNAKNSVYLQMNSLKPEDTAVYYCAADYIDRVGWMDYWGQGTQVTVSS | low polyreactivity
14 | QVQLVESGGGLVQAGGSLRLSCASSGRTFRKYAMGWYRQAPGKERELVAGIDTSGGSTFYADSVKGRFTISRDNAKNTVYLQMNSLKPEDTAVYYCNADRHRINRPVILYYWGQGTLVTVSS | low polyreactivity
15 | QVQLVESGGGLVQAGGSLRLSCAASGFTFLYNARGWYIQAPGKERELVASINSGGSTNYADSVKGRFTISRDNAKNTVYLQKNSLKPEDTAVYYWNAKRHVRKGDYWGQGTQVTVSS | low polyreactivity
16 | QVQLVESVGGLVQAGGSLRLSCAASGRTFPYYAKGGYRQAPWKERELVATISSGGITNYADSVKVRFTISRDNAKNTVYLQMNSLKPEDTAVYYCAADRHWSAGLWRYDYWGQGTQVTVSS | high polyreactivity
17 | QVQLVESGVGLVQAGGSLRLSCAASGSTFDYYVMGWYRQAPGKVRELVAAISETGDDTYYADSVKGRFTLSRDNAKNTVYLQINRLNPEDTAVYYCAADSYFYSGFVRRFYFWGQGSQVTVSS | high polyreactivity
18 | QVQLVESGGGLVQAGGSLRLSCAASGSTFQYNAMGWYRQAPGKEREFVAAISRTGTSTYYADSVKGRFTISRDNAKNTVYLQMNSLKPEDNAVYYCAAKSLRSGMGYWGQGTQVTVSS | high polyreactivity
19 | KVQLVESGGGLVQAGGSLRLSCAASGSIISPNAMGWYRQAPGKERELVAGITQSGGSTYYADSVKGRFTISRDNAKNTVYLQMNSLKPEDTAVYYCSVDFILGWYSYYYWGQGTQVTVSS | high polyreactivity
20 | QGQLVESGGGLFQAGGSLRLSCAASGRIFRRYAMGWDIQAPGKERELVAAISRGGSTYYADSVKGRFTISRDNAKNTVYLQMNSLKPEDTAVYYCAAYSQSTSFGGYDSWGQGTQVTVSS | high polyreactivity
21 | QVQLVESGGGLFQAGGSLRLSCAASGSTFVWYAMGWYRQAPGKEREFVAANTNSGGSTYYADSVKGRFTISRDTAKNTVYLQMNILKPEDTAVYYCAAQSYYFSYHYDYWGQGTQVTVSS | low polyreactivity
22 | QVQLVESGGGLVQAGGSLRLSCAASGRIFWGYDMGWYRQAPGKERELVAAINWSGGITNYADSVKGRFTISRDNAKNTVYLQMNSLKPEDTAVYYCAADTYWHRYYWGQGTQVTVSS | high polyreactivity

Row | Sequence | polyreactivity (PSR sort gate)
23 | QVQLVETGGGLVQAGGSLRLSCAASGRIFGPNSKGWYRQAPGKEREFVASIRYSGGSTYYADSVKGRFTISRDYAKNTVYLQMHSLKPEDTAVYYCAARTVTLSYLYYYWGQGTHVTVSS | high polyreactivity
24 | QVQLVESGGGLVQAGGSHRLSCAASGRIFGPYTMGWYRQAPGKERELVAAISLSGGSTYYADSVKGRFTISRDNAKNTVYLQMNRLKAEDTAVYYCNADHPFPQYEGGSWGQGTQVTVSS | low polyreactivity
25 | QVQLVESGGGLVQAGGSLRLSCAASGNIFDRNAMGWYRHAPGKQRELVAAISRSGGRTYYADSVKGRFTISRDNAKNTVYLQMISLKPEDTGVYYCATTYGGTYEYDYWGQGTQVTVSS | high polyreactivity
26 | QVQLVESGGGLVQAGGSLRLSCAASGSTLDSNAMGWYRQAPGKERELVAGIDWSGGSTYADSVKGRFTISRDNAKNTVYLQMNSLKPEDTAVYYCNRKLTRFTSFPLDYWGQGTQVTVSS | low polyreactivity
27 | QVQLVESGGGLVQAGGSLRLSCAASGIIFYPYAMGWYRQAPGKERELVAGISWSGGRTYYADSVKGRFTISRDNAKNTVYLQMNSLKPEDTAVYYCAARYRQRAYDYWGQGTQVTVSS | high polyreactivity
28 | QVQLVESGGGLVQAGGSLRLSFAASGFTFGYYTMGWYRQAPGKERELVAAITSGGGTYYADSVKGRFTISRDNAKNTVYLQMNSLKPEDTAVYYCATTPVWYKVSRRYGYWGQGTQVTVSS | high polyreactivity
29 | QVHIVESGEVIVQAGGSLRLSCDASGFTIIQYAMGWYRQAPGKERELVAAISVSGGSTYYADSVKGRFTISRDNAKNTVYLQMNSLKTEDTAVYYCATYGFHSIGSIFEYEYWGQGTQVTVSS | high polyreactivity
30 | QVQLVESGGGLVQAGGSLRLSCAASGFTFYLYAMGWYRPAPGKERELVAAITYSAGSTYYADSVKGRFTISRDNEKNTVYLQMNSLKPEDTAVFSCAKRGHYRAWGGGGYWGQGTQVTVSS | low polyreactivity
31 | QVQLVESGGGLVQAGGSLRLSCAPSGCTLGAYAMGWYRQAPGKVRELVADISSRGASTYYEDSVKGRFTISRDHAKNTVYIQMNSLKPEDTAVYDCARAVYIWYGYGYFPEYEYWGQGTQVTVSS | low polyreactivity
32 | QVQLEESGGRLVQAGARLRLSCAASGPIFHQYAMGWYRHAPGKERELGAAISSGGGSTYYADSVKGRFTISRDNAKNTGYLQMNSLKPEDTAVYYCNVYSVRWARFDFWGQGTQVTVSS | high polyreactivity
33 | QVQLVESGGGLVQAGGCLRLSCAASGFIFYVNAMGWYRLAPGKERELVAAISSSGTRTYYADSVKGRFTISRDNAKNTVYLQMNSLKPEDTAVYYCNAAQSVELGYDYWGQGTQVTVSS | high polyreactivity
34 | QVQLVESGGGLVQAGGSLRLSCAASGSIFLNNAMGWYRQAPGKERELVAAITRNVGSTYYADSVKGRFTISRDNAKNTVYLQMNSLKPEDSAVYYCAADRRRRYDYWGQGTQVTVSS | low polyreactivity
35 | QVQLVESGGGLVQAGGSLRLSCAASGRTFSYYAMGWYRQAPGKERELVATISWSGSTYYADSVKGRFTLSRDNAKNTVYLQMNSLKPEDTAVYYCAARYRYAGWYSVWYDYWGQGTQVSVSS | high polyreactivity
36 | QVQLVESGGGLVQAGGSLRLSCAASGSTFSTNAMGWYRQAPGKERELVAAIRWRGGRTYYADSVKGRFTISRDNAKNTVYLQMNSLKPEDTAVYYCAADYSFTGHRYTYGYWGQGTQVTVSS | high polyreactivity
37 | QVQLVESGGGLVQAGGRLRLSCAASGAIFDRNVMGWYSQAPGQERELVAAISGSGGRTYYADSVKGRFTISRDNAKNTVYLQMNSLKPEDTAVYYCAARAFRVVPGGDYWGQGTQVTVSS | high polyreactivity
38 | QVQLVESGGGLVQAGGSLRLSCAASGNTFYRNAMGWYRQAPGKERELVAAISTTGVSTYYADSVKGRFTISRDNAKNTVYVQMTSLKPEDTAVYYCAAEIIGYHTIYDYWGQGTQVTVSS | low polyreactivity
39 | QDQLVESGGGLVQAGGRLRLSCAASGRTFYWNAMGWNRQAPGKEREMVAAITRGGSTTYADSVKGRFTISRDNAKNTVYLQMNSLKPEDTAVYYCNKVYSLWPGYRYDYWGQGTQVTVSS | high polyreactivity
40 | QEQLQESGGGQVQAGGSLLLSCAASGNIIRYYYMGWYRQAPGKERELVAAITYGTSTNYADSVKGRFTISRDNAKNTVYLQMNSLKPEDTAVYYCAVDVNYGDPLDNWGQGTQVTVSS | high polyreactivity
41 | QVQLVESGGGLVQAGGSLRLSCAASGFIFGSYAMGWYRQAPGKERELVAAISYRGGTTYYADSVKGRFTISRDNAKNTVYLQMNSLKPEDTAVYYCAADSPENRYNYWGQGTQVTLSS | high polyreactivity
42 | QVQLVESGGCLVQAGGSLRLSCAASGYTLATYAMGWYRQAPGKERELVAAITSTGGTTYYADSVKGRFTISRDNAKNTVYLPMNSLKPEDTAVYYCNAAAALYKRYDYWGQGTQVTVSS | high polyreactivity
43 | QVQLVESGGGLVQAGGSLRLSCAASGIIFTYYAMGWYRPAPGKERELVAAISSGGGSTYYADSVKGRFTISRDNAKITVYLQMNSLKPEDTAVYYCNADYYFVYTYLHDYWGQGTQVTVSS | low polyreactivity
